This passage reports Kd results from PMC8809517, “Cofactor-independent RNA editing by a synthetic S-type PPR protein”.

Assay in all cases: high-throughput RNA pulldown from lysate on Ni-NTA beads; HRP: 50 mM Tris pH 8, 150 mM NaCl, 1 mM beta-mercaptoethanol, 50 ug/ml BSA, 3 ug/ml yeast RNA, 0.5% heparin; ITC and FP: Tris pH 8, 200 mM KCl, 5% glycerol; MST: 50 mM Tris pH 8, 200 mM NaCl, 1 mM DTT, BSA, heparin, 0.05% Tween 20
Details in all cases: tags: N-terminal His-eGFP

Data set [1] concerns the target T1, GFP-9S library array, motif 4 ND N98I;D124T (synthetic construct, N98I;D124T).
T1 chain: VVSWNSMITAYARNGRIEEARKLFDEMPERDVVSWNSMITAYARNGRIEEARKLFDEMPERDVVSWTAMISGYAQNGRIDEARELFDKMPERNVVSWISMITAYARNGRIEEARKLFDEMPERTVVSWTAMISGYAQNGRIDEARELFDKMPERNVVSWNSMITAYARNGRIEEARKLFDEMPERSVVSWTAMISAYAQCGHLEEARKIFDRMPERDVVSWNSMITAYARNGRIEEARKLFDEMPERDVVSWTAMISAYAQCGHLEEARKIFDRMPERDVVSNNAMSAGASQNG

Data set [2] concerns the target T2, GFP-9S library array, motif 4 ND N98F;D124F (synthetic construct, N98F;D124F).
T2 chain: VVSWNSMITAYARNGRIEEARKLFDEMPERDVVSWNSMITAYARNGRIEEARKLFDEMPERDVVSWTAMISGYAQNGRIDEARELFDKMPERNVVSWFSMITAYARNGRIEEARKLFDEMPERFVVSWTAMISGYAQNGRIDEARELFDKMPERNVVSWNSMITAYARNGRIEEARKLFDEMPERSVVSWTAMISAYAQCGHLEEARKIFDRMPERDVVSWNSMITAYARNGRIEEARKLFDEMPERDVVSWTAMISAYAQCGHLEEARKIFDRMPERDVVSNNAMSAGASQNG

In data set [3] the target is T3, GFP-9S library array, motif 4 ND N98A;D124Q (synthetic construct, N98A;D124Q).
T3 chain: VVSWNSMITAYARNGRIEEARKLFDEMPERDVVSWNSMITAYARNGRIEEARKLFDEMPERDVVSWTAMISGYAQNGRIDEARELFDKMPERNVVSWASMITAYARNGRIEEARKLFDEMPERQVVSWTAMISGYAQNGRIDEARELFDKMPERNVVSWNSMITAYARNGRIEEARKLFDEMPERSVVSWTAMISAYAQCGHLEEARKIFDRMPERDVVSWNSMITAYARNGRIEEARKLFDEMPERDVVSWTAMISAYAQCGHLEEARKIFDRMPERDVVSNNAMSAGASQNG

Data set [4] has as its target T4, GFP-9S library array, motif 4 ND N98E;D124P (synthetic construct, N98E;D124P).
T4 chain: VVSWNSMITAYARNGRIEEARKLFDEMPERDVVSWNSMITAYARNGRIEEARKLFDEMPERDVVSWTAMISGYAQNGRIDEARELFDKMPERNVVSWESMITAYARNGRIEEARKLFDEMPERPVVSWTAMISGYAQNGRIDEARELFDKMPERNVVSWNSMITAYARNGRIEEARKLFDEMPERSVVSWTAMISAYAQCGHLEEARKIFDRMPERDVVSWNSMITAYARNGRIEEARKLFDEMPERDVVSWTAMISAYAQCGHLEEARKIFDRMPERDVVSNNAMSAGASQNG

The target in data set [5] is T5, GFP-9S library array, motif 4 ND N98Q;D124V (synthetic construct, N98Q;D124V).
T5 chain: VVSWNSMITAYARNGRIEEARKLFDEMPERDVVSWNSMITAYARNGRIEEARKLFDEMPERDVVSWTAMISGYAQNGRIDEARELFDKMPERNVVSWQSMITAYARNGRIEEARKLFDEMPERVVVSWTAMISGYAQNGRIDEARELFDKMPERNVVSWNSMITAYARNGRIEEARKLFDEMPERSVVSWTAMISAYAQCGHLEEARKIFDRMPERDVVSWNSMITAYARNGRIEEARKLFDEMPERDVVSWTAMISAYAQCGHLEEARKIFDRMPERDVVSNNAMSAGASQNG

Broadly, the Kd is the concentration at which binding is half-saturated. Read a low Kd as tighter binding.

For AUUACACGUGA (ssRNA) [Cy5-rpoA], the dissociation constant Kd in data set [1] (label: 5' Cy5) amounted to 141 nM; in data set [2] (label: 5' Cy5), 76.4 nM; in data set [3] (label: 5' Cy5), 249 nM; in data set [4] (label: 5' Cy5), 130 nM; in data set [5] (label: 5' Cy5), 3530 nM.

As to AUUAUACGUGA (ssRNA) [IR-rpoA-U], the Kd in data set [1] (label: 5' IRDye 800CW) was determined as 59.1 nM; in data set [2] (label: 5' IRDye 800CW), 140 nM; in data set [3] (label: 5' IRDye 800CW), 522 nM; in data set [4] (label: 5' IRDye 800CW), 271 nM; in data set [5] (label: 5' IRDye 800CW), 3180 nM.

As to AUUAAACGUGA (ssRNA) [IR-rpoA-A], the equilibrium dissociation constant (Kd) turned out to be 158 nM in data set [1] (label: 5' IRDye 800CW); 200 nM in data set [2] (label: 5' IRDye 800CW); 306 nM in data set [3] (label: 5' IRDye 800CW); 264 nM in data set [4] (label: 5' IRDye 800CW); 4090 nM in data set [5] (label: 5' IRDye 800CW).

Take AUUAGACGUGA (ssRNA) [Cy5-rpoA-G]: the Kd in data set [1] (label: 5' Cy5) stood at 145 nM; in data set [2] (label: 5' Cy5), 92.1 nM; in data set [3] (label: 5' Cy5) it was 174 nM; in data set [4] (label: 5' Cy5), 102 nM; in data set [5] (label: 5' Cy5) it was 3040 nM.
